Like-named read-outs stand apart in the source and are kept apart here. One block for each binder: values may come before it. Bridge positions count the residues as written; N and C are the ends. Square brackets hold non-standard residues; d marks the D form. * marks the point of attachment. 5FAM = O=C1OC2(c3ccc(O)cc3Oc3cc(O)ccc32)c2ccc(C(=O)*)cc21; Ach = 2-aminocyclohexane-1-carboxylic acid; Dap = NC[C@H](N)C(=O)O
Key:
[1] = target: T1, PCSK9 (proprotein convertase subtilisin/kexin type 9), His-tagged, full-length (human, UniProt Q8NBP7 31-692); experiment: SPR, Method 3 (SensiQ Pioneer FE, target amine-coupled, gradient injection)
T1 construct: Captured by the His tag (SPR Methods 1 and 2), amine-coupled (Method 3), or His-tagged in TR-FRET; also called His-PCSK9
T1 sequence (Q8NBP7 31-692 limits assumed): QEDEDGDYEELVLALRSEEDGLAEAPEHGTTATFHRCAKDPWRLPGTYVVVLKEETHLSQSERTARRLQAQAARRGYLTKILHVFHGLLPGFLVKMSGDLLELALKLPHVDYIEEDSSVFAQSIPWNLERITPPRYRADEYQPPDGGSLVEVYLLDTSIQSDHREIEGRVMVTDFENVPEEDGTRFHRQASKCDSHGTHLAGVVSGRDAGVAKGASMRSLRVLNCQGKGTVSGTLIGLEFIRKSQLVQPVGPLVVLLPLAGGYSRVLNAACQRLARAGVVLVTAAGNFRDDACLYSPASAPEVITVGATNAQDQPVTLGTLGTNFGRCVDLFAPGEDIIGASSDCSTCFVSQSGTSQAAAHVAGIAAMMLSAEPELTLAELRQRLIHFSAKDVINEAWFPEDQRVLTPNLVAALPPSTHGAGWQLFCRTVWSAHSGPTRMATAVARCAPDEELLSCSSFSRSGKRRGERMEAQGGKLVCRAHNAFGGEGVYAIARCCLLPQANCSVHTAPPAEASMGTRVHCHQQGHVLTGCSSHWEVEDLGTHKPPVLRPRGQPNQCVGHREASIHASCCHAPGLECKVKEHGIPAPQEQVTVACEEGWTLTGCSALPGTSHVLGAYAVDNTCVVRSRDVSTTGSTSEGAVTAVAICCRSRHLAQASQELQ

PCSK9Δhelix [2] = target: T2, PCSK9Δhelix (human, UniProt Q8NBP7 31-152; Q8NBP7 168-692); experiment: as above
T2 construct: Made by TEV cleavage of human PCSK9 M1-Q692 with an engineered TEV site; The new N-terminus of the catalytic domain is S-A168; also called His-PCSK9Δhelix; PCSK9 lacking the P' helix
T2 sequence (Q8NBP7 31-152, stated change not applied, chain 1 of 2): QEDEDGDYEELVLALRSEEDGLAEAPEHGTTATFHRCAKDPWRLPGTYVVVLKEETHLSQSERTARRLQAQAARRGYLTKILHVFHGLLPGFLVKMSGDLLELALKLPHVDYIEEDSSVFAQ
T2 sequence (Q8NBP7 other isoform, or with tags, fused parts or gaps mutant, chain 2 of 2): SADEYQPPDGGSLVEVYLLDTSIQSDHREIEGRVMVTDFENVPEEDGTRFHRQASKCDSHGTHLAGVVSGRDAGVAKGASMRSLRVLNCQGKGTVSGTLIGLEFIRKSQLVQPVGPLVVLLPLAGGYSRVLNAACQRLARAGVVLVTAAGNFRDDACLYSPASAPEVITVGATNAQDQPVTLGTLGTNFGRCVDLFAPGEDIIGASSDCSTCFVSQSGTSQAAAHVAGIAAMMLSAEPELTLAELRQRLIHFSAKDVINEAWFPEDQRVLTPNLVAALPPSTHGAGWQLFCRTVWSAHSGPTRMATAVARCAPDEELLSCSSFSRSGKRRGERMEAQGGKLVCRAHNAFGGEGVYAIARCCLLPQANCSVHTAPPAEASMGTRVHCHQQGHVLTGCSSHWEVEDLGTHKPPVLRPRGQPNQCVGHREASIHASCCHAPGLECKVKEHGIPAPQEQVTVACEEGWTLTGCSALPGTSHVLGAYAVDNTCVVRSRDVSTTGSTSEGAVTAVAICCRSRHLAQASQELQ

[3] = target: T3, PCSK9Δhelix (human PCSK9 lacking the P' helix, His-tagged) (human, UniProt Q8NBP7 31-152; Q8NBP7 168-692); experiment: SPR (Biacore), His-tagged PCSK9Δhelix captured on NTA chip
T3 construct: Construct M1-Q692 with an engineered TEV site (Y166 and R167 deleted, ENLYFQS inserted between R165 and A168); also called His-PCSK9Δhelix; C-terminal (His)8-tagged PCSK9Δhelix
T3 sequence (Q8NBP7 31-152, stated change not applied, chain 1 of 2): as the sequence (Q8NBP7 31-152, stated change not applied, chain 1 of 2) above
T3 sequence (Q8NBP7 other isoform, or with tags, fused parts or gaps mutant, chain 2 of 2): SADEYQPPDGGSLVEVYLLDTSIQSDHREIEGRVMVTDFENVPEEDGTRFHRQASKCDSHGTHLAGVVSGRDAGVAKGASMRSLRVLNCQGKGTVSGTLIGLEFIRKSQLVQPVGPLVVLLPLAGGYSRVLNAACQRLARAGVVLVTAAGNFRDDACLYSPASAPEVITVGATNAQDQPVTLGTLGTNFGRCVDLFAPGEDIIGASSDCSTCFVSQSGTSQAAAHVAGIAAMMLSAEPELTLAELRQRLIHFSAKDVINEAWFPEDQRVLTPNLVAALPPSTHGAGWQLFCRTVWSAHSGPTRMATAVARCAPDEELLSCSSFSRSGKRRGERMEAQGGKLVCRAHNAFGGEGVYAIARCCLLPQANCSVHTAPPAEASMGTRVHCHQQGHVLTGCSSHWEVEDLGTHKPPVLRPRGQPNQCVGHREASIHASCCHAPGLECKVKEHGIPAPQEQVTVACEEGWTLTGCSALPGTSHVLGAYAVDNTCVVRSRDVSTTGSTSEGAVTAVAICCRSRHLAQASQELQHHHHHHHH

[4] = target: T3, PCSK9Δhelix (human PCSK9 lacking the P' …); experiment: TR-FRET competition; His-PCSK9Δhelix with Ab20 as competitor ligand
[5] = target: T1, PCSK9 (proprotein convertase …); experiment: TR-FRET competition; competitor EGF(A)-Fc binding to His-PCSK9
PCSK9Δhelix [6] = target: T2, PCSK9Δhelix; experiment: TR-FRET competition; competitor Ab20 binding to His-PCSK9Δhelix
[7] = target: T1, PCSK9 (proprotein convertase …); experiment: TR-FRET competition; competitor EGF(A)-Fc binding to His-PCSK9; remark: listed apart in the source
PCSK9Δhelix [8] = target: T2, PCSK9Δhelix; experiment: TR-FRET competition; competitor Ab20 binding to His-PCSK9Δhelix; remark: listed apart in the source
[9] = target: T1, PCSK9 (proprotein convertase …); experiment: TR-FRET competition; competitor EGF(A)-Fc binding to His-PCSK9; remark: listed apart in the source
PCSK9Δhelix [10] = target: T2, PCSK9Δhelix; experiment: TR-FRET competition; competitor Ab20 binding to His-PCSK9Δhelix; remark: listed apart in the source

Binder: 5FAM-SGSGCFIPWNLQRIGLLC-NH2 (disulfide 5-18 (inferred), Two Cys, disulfide-cyclized) [Compound 33]
Kd [1]: 6.01 µM
Kd (PCSK9Δhelix [2]): 10 µM

Binder: Ac-TVFTSWEEYLDWVGSGKLWNLG-NH2 [Compound 5]
IC50 [5]: 0.72 µM
IC50 (PCSK9Δhelix [6]): 11.1 µM

Binder: Ac-CRLPWNLQRIGLPC-NH2 (disulfide 1-14 (inferred), Two Cys, disulfide-cyclized) [Compound 32]
Kd [1]: 1.3 µM
Kd (PCSK9Δhelix [2]): 0.21 µM

Binder: Ac-TVFTSWEEYLDWVGSGKLWN-NH2 [Compound 7]
IC50 [5]: 0.5 µM
IC50 (PCSK9Δhelix [6]): 18.6 µM

Binder: Ac-TVFTSWEEYLDWVGSGKLWNLGR-NH2 [Compound 4]
IC50 [5]: 0.49 µM
IC50 (PCSK9Δhelix [6]): 1.52 µM

Binder: Ac-TVFTSWEEYLDWVGGSGKLWNLGRV-NH2 [Compound 8]
IC50 [5]: 1.03 µM
IC50 (PCSK9Δhelix [6]): 0.049 µM

Binder: Ac-TVFTSWEEYLDWVGSGGKLWNLGRV-NH2 [Compound 9]
IC50 [5]: 0.39 µM
IC50 (PCSK9Δhelix [6]): 0.065 µM

Binder: Ac-TVFTSWEEYLDWVGGSGCWNLKRIGSQGC-NH2 (disulfide 18-29 (inferred), Two Cys, disulfide-cyclized) [Compound 13]
IC50 [7]: 0.01 µM
IC50 (PCSK9Δhelix [8]): 0.001 µM

Binder: Ac-TVFTSWEEYLDWVGSGGCWNLKRIGSQGC-NH2 (disulfide 18-29 (inferred), Two Cys, disulfide-cyclized) [Compound 14]
IC50 [7]: 0.009 µM
IC50 (PCSK9Δhelix [8]): 0.001 µM

Binder: Ac-CFIPWNLQRIGLLC-NH2 (disulfide 1-14 (inferred), Two Cys, disulfide-cyclized) [Compound 31]
Kd [1]: 5.83 µM
Kd (PCSK9Δhelix [2]): 3.01 µM

Binder: Ac-TVFTSWEEYLDWVGSGKLWNL-NH2 [Compound 6]
IC50 [5]: 0.74 µM
IC50 (PCSK9Δhelix [6]): 10 µM

Binder: 5FAM-SGSGCRLPWNLQRIGLPC-NH2 (disulfide 5-18 (inferred), Two Cys, disulfide-cyclized) [Compound 34]
Kd [1]: 4.47 µM
Kd (PCSK9Δhelix [2]): 5.28 µM

Binder: Ac-TVFTSWEEYLDWVGSGKLWNLGRV-NH2 [Compound 1]
IC50 [5]: 0.388 µM
IC50 (PCSK9Δhelix [6]): 0.021 µM

Binder: Ac-TVFTSWEEYLDWVGSGGCRLPWNLQRIGLPC-NH2 (disulfide 18-31 (inferred), Two Cys, disulfide-cyclized) [Compound 25]
IC50 [7]: 0.781 µM
IC50 (PCSK9Δhelix [8]): 0.083 µM

Binder: Ac-TVFTSWEEYLDWVGSGCWNLGRIGSQGC-NH2 (disulfide 17-28 (inferred), Two Cys, disulfide-cyclized) [Compound 11]
IC50 [7]: 0.34 µM

Binder: Ac-TVFTSWEEYLDWVGSGCWNLKRVGSQGC-NH2 (disulfide 17-28 (inferred), Two Cys, disulfide-cyclized) [Compound 12]
IC50 [7]: 0.19 µM

Further lines, results first:

Kd [1]: 46.4 µM
Kd (PCSK9Δhelix [2]): 2.5 µM
Binder: Ac-FCLWNLKRIGAQCWF-NH2 (disulfide 2-13 (inferred), Two Cys, disulfide-cyclized) [Compound 96]

Kd [3]: 2.1 µM
IC50 [4]: 15.9 µM
Binder: Ac-PWNLVRIGLLR-NH2 [Compound 52: Ac-PWNLVRIGLLR-NH2]

Kd [3]: 14 µM
IC50 [4]: 52.4 µM
Binder: Ac-WNLVRIGLLR-NH2 [Compound 53: Ac-WNLVRIGLLR-NH2]

Kd [1]: 11 µM
Kd (PCSK9Δhelix [2]): 0.167 µM
Binder: Ac-CRLPWNLARIGLPC-NH2 (disulfide 1-14 (inferred), Two Cys, disulfide-cyclized) [Compound 73]

IC50 [9]: > 50 µM
IC50 (PCSK9Δhelix [10]): 10.2 µM
Kd [1]: 17.9 µM
Kd (PCSK9Δhelix [2]): 2.6 µM
Binder: Ac-PWNLVRIGLLR-NH2 [Compound 52]

IC50 [9]: > 50 µM
IC50 (PCSK9Δhelix [10]): 2.02 µM
Kd [1]: 117 µM
Kd (PCSK9Δhelix [2]): 8.2 µM
Binder: Ac-ALMPWNLVRIGLLR-NH2 [Compound 45]

IC50 [9]: > 50 µM
IC50 (PCSK9Δhelix [10]): 9.7 µM
Kd [1]: 96.5 µM
Kd (PCSK9Δhelix [2]): 2.8 µM
Binder: Ac-DLMPWNLVRIGLAR-NH2 [Compound 55]

IC50 [9]: > 50 µM
IC50 (PCSK9Δhelix [10]): 33.1 µM
Kd [1]: 223 µM
Kd (PCSK9Δhelix [2]): 33.8 µM
Binder: Ac-WNLVRIGLLR-NH2 [Compound 53]

IC50 [9]: > 50 µM
IC50 (PCSK9Δhelix [10]): 2.66 µM
Kd [1]: 16.1 µM
Kd (PCSK9Δhelix [2]): 1.6 µM
Binder: Ac-LMPWNLVRIGLLR-NH2 [Compound 50]

Kd [3]: 1.4 µM
IC50 [4]: 6.6 µM
Binder: Ac-MPWNLVRIGLLR-NH2 [Compound 51: Ac-MPWNLVRIGLLR-NH2]

IC50 [9]: > 50 µM
IC50 (PCSK9Δhelix [10]): 4.69 µM
Kd [1]: 26.2 µM
Kd (PCSK9Δhelix [2]): 2.7 µM
Binder: Ac-MPWNLVRIGLLR-NH2 [Compound 51]

Kd [3]: 1.38 µM
IC50 [4]: 7.9 µM
Binder: Ac-DLMPWNLVRIGLLR-NH2 [Compound 35: Ac-DLMPWNLVRIGLLR-NH2]

Kd [3]: 0.47 µM
IC50 [4]: 3.6 µM
Binder: Ac-LMPWNLVRIGLLR-NH2 [Compound 50: Ac-LMPWNLVRIGLLR-NH2]

Kd [1]: 118 µM
Kd (PCSK9Δhelix [2]): 6.4 µM
Binder: Ac-CRL[Ach]WNLQRIGLPC-NH2 (disulfide 1-14 (inferred), Two Cys, disulfide-cyclized) [Compound 82]

IC50 [7]: 0.471 µM
IC50 (PCSK9Δhelix [8]): 0.003 µM
Binder: Ac-TVFTSWEEYLDWVGSGGCFLPWNLQRIGLLC-NH2 (disulfide 18-31 (inferred), Two Cys, disulfide-cyclized) [Compound 38]

Kd [1]: 522 µM
Kd (PCSK9Δhelix [2]): 89.2 µM
B1: Compound 97 (peptide)
peptide: Ac-GSGCWNL[Dap]RIGSQGC-NH2
modifications: disulfide 4-15
SMILES: CC[C@H](C)[C@@H]1NC(=O)[C@H](CCCNC(=N)N)NC(=O)[C@H](CN)NC(=O)[C@H](CC(C)C)NC(=O)[C@H](CC(N)=O)NC(=O)[C@H](Cc2c[nH]c3ccccc23)NC(=O)[C@@H](NC(=O)CNC(=O)[C@H](CO)NC(=O)CNC(C)=O)CSSC[C@@H](C(N)=O)NC(=O)CNC(=O)[C@H](CCC(N)=O)NC(=O)[C@H](CO)NC(=O)CNC1=O
notes: Two Cys, disulfide-cyclized; also called Ac-GSG-CWNL(Dpr)RIGSQGC-NH2
